Here are results for 2 molecules from PMC7949163.

For orientation: Kd means the free concentration of one partner at which half of the binding sites on the other are occupied at equilibrium, for simple one-to-one binding. As a reminder, the stoichiometry N is the number of molecules, sites or subunits per partner or assembly.

In assay [1] the target is Mutual gliding-motility protein B (MglB) (Myxococcus xanthus) (UniProt Q1DB03). The assay is described as follows: ITC; 25 °C; 50 μM MglB in the cell titrated with 500 μM MglC; one set of sites model; triplicates.
Assay [2] concerns the target Mutual gliding motility protein C (MglC) (Myxococcus xanthus). The assay is described as follows: SEC; analytical SEC, Superdex 200 Increase 10/300, 0.5 ml/min, A280; proteins alone or MglB:MglC mixed 1:1, 2:1 and 1:2; MglB mutants mixed with MglC 2:1. Background: In gel filtration, larger molecules generally elute earlier.
Assay [3] has as its target Mutual gliding-motility protein B (MglB) (Myxococcus xanthus) (UniProt Q1DB03). The assay is described as above.
In assay [4] the target is Mutual gliding motility protein C (MglC) (Myxococcus xanthus). The assay is described as follows: SAXS; SAXSpace line collimation, 20 °C; MglB 25, 15, 10 mg/ml; MglC 35, 15, 20 mg/ml; MglBC and MglB^ΔCTC complexes freshly eluted from SEC.
In assay [5] the target is Mutual gliding-motility protein B (MglB) (Myxococcus xanthus) (UniProt Q1DB03). The assay is described as above.
Assay [6] concerns the target T1, Mutual gliding-motility protein B (MglB) (Myxococcus xanthus), Q1DB03.
T1 chain: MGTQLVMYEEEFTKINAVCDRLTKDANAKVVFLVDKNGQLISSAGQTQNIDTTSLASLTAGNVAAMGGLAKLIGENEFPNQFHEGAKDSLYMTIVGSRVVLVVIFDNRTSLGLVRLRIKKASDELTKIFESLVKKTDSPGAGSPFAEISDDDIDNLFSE
Described as above. The note with it: remark: other sources report otherwise.

Assay [7] deals with T1, Mutual gliding-motility protein B …. The assay is described as follows: SEC; analytical SEC, Superdex 200 Increase 10/300, 0.5 ml/min, A280; proteins alone or MglB:MglC mixed 1:1, 2:1 and 1:2; MglB mutants mixed with MglC 2:1. The note with it: remark: other sources report otherwise.

In assay [1], “Mutual gliding motility protein C (MglC) (natural protein)” gave a Kd of 417 nM. The same molecule returned a dH in assay [1] of 6.94 kcal/mol. Also, the results for the stoichiometry N in assay [1], in assay [2] and in assay [4] were 0.51, 2 and 2, respectively. In addition, the stoichiometry N (MglC per MglB) in assay [3] and in assay [5] was 0.5 throughout.

B1: Mutual gliding-motility protein B (MglB), Q1DB03 1-159 (natural protein)
chain: T1 chain
Turning to B1, the stoichiometry N in assay [6] and in assay [7] was 2 each time.
